US12263245B2, “Immunomodulating treatments of body cavities” (UROGEN PHARMA LTD., priority 2023, dated 2025)

Tests used:
CD4+ICOShi T cells = settings: patients treated systemically with two doses, cited from earlier work
[1] = design: species or system human; settings: in vivo
[2] = Aggregation stability of AGEN1884 drug product; assay type: physicochemical
Description: AGEN1884 is very stable to aggregation.

Substance | Expression of CD4+ICOShi T cells (CD4+ICOShi T cells; blood samples) | Increase in levels of IFN-γ compared to untreated patients (CD4+ICOShi T cells) | Sustained concentration of zalifrelimab detected in urine overtime [1] | Increase in aggregate ([2]; all samples at all ambient temperatures analyzed (even elevated) through the nine-month time point) | Zalifrelimab aggregates after 24 hours ([2]; stored at about 2° C.-8° C. for at least 24 hours)
ipilimumab: an anti-CTLA-4 antibody | increased expression | approximately five-fold | – | – | –
zalifrelimab: recombinant, fully human immunoglobulin G1 monoclonal antibody that neutralizes the inhibitory effects of CTLA-4 | – | – | below the level of quantitation | no increase in aggregate was detected | substantially free from zalifrelimab aggregates
